Data on one substance can be found in article PMC11808123.

Experiment [1] deals with Recombinant CDK2 (human, full length), biotinylated (human) (UniProt P24941). Kind of experiment: BLI; no drug. The note with it: domain or fragment. On the technique in general: Biolayer interferometry detects binding as a change in optical thickness at a sensor tip.
Experiment [2] has the same target. Briefly: BLI; with 100 nM INX-315. The conditions noted are these: domain or fragment.

A word on the Kd: it is the equilibrium constant for the complex coming apart. As usually defined, the koff is the rate constant with which the complex falls apart. On to “Recombinant cyclin A (human Cyclin A, residues 173-465)”, for which the dissociation constant (Kd) in experiment [1] was 0.57 nM; in experiment [2] it was 0.24 nM. For the same substance, the dissociation rate constant (koff) in experiment [1] worked out at 0.00011 s⁻¹; in experiment [2], 5e-05 s⁻¹.
